This is an account of results in the nanobody polyreactivity screen of Harvey et al. (2022).

The nature of this data set: yeast display, Sf9 membrane polyspecificity reagent, FACS + sequencing; frameworks hold sequencing errors. Put shortly: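 Synthetic nanobody libraries on Saccharomyces cerevisiae BJ5465 were galactose-induced for 36–48 hours, stained 1 hour at 4 °C with 10% biotinylated, detergent-solubilized Sf9 membrane reagent and enriched on streptavidin microbeads. FACS then separated cells into low and high (top ~1%) gates by anti-HA (expression) and streptavidin (reagent binding) fluorescence. Genes were colony-PCR amplified, MiSeq 2 × 250 sequenced and CDR-length filtered. A clone's polyreactivity label is that of its gate of origin.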
Take “QVQLVESGGGLVQAGGSLRLSCAASGRIFFYNDMGCYRQAPGKERELVASISSGTSTYYADSVKGRFTISRDNAKNTVYLQMNSLKPEDTAVYYCATGRPWHYSSATYDYWGQGTQVTVSS”: the “polyreactivity (PSR sort gate)” value is “low polyreactivity”.
For the sequence “QVQLVESGGGLVQAGGSLRLSCAPSGFTFRYYGMGWYRQAPGKERELVAAITRTGGSTYYADSVKGRFTISRDNAKYTVYLQMNSLKPEDTAVYFCGAGGSYAYVYWGQGTQVTVSS”, the “polyreactivity (PSR sort gate)” value is “high polyreactivity”.
For “QVQLVESGGGLVQAGGSLRLSCAASGFTFYYYAMGWYRQAPGKERELVATIRWSGGSTYYADSVKGRFTISRDNAKNTVYLQMNSLKPEDTAVYYCNATPPQYVKYPSYKYDYWGQGTQVTVSS” the value was “low polyreactivity”; for “QVQLVESGGGLVQAGGSLRLSCAASGSIFDPYAMGWYRQAPGKERELVAAINGGSGSTFYADSVKGRFTISRDNAKNTVYLQMNSLKPEDTAVYYCAAKIWRYSPSYYPEPRGDYWGQGTQVTVSS”, “low polyreactivity”.
As to “QVQLVESGGGLVQAGGSLRLSCAASGNIFKQYTMGWYRQAPGKERELVAAIRSRGGSTYYADSVKGRLTISRDNAKNTVYLQMNSLKPEDTAVYYCAKVLGRTTLRMDYWGQGPQVTVSS”, the “polyreactivity (PSR sort gate)” value was “high polyreactivity”.
Regarding “QVQLVESGGGLVQAGGSLRLSCAASGSTVHYMGWYRPAPGKERELVAGISWSGGSTYYADSVKGRFTISRDNAKNTVYLQMTSLKPEDTAVYYCAADIKIRLYTTGDYWGQGTQVTVSS”, the “polyreactivity (PSR sort gate)” value is listed as “low polyreactivity”.
Take “QVQLVESGGGLVQAGGSLRLRCAASGSIFGGNAMGWYRQAPGKEREMVATITDRGSSTYYADSVKGRFTISRDNAKNTGYLQMNSLKPEDTAVYYCATAFPDVPEHDYWGQGTQVTVSS”: the “polyreactivity (PSR sort gate)” value is listed as “low polyreactivity”.
With “QVQLVESGGGLVQAGGSLRLSCAASGFTFPPYGMGWYRQAPGKERELVASISIGGGTYYADSVKGRFTISRDNAQNTVYLQMNSLKPEDTPVYYCAADLGQWSYYEFDYWGQGTQVTVSS”, the “polyreactivity (PSR sort gate)” value is recorded as “low polyreactivity”.
For “QVQLVESGGGLVQAGGSLRLSCAASGSILAGYAMGWYRQAPGKERELVAAITSGGGSTYYADSVKGRFTISSDNAKITVYLQMNSLKAEDTAVYYCARDSGYYYDEYYYWGQGTKVTVSS”, the “polyreactivity (PSR sort gate)” value is “low polyreactivity”.
As to “QVQLVESGGGLVQAGGSLRLSCAASGITFYGYAMGWYRQAPGKERELVASINSTGSTNYADSVKGRFTISRDNAKNTVYLQMNSLKPDDTAVYYCAARYRDGYRSKRKFGYWGQGTQVTVSS”, the “polyreactivity (PSR sort gate)” value was “high polyreactivity”.
As to “QVQLVESVGGLVQAGGSLSISCAASGRIFPRNAMGWYRPAPGKERELVAAISSGGGGTYYADSVKGRFTISRDNAKNTVYLQMNSQKPEDTAVYYCAAYVVRWWCDGDYWGQGTQVTVSS”, the “polyreactivity (PSR sort gate)” value is “high polyreactivity”.
As for “QVQLVESGGGLVQAGGSLRLSCAASGLIFLDYAMGWYRQAPGKERELVAAISRSGGRTYYADSVKGRFTISRDNAKNTVYLQMNSLKPEDTAVYYCAADGSRKSEIYDYWGQGTQVTVSS”, the “polyreactivity (PSR sort gate)” value is on record as “high polyreactivity”.
With “QVQLVESGGGLVQAGGSLRLSCAASGSIFYRNTMGWYRQAPGKERELVASINTGTGTYYADSVKGRFTISRDNAKNTVYLQMNSLKPEDTAVYYCNSKGWVWPFPSYYPYDSWGQGTQVTVSS”, the “polyreactivity (PSR sort gate)” value is recorded as “high polyreactivity”.
Take “QVQLVESGGGLVQAGGSLRLSCAASGRIFGVYAMGWYRQAPGKERELVAAITRGASTYYADSVKGRFTISRDNAKNTVYLQMNSLKPEDCAVYYCAVSQYRGIYRMDYWGQGTQVTVSS”: the “polyreactivity (PSR sort gate)” value is reported as “high polyreactivity”.
For the sequence “QVQLVESGGGLVQAGGSLRLSCAASGRILRINPMGWYRQAPGKERELVAAISGSGGTTYYADSVKGRFTISRDNAKNTVYLQMNSLKPEDTAVYYCNKAIWYAEYDYWGQGTQVTVSS”, the “polyreactivity (PSR sort gate)” value is reported as “low polyreactivity”.
Under “QVQLVESGGGLVQAGGSLRLSCAASGITFFVYDMGWYRQAPGKERELVAAITWSGDSTYYADSVKGRFTISRDNAKNTVYLQMNSLKPEDTAVYYCAAQFDVYYSRQPYDYNRSGYWGQGTQVTVSS” stands “low polyreactivity”.
Turning to “QVQLVESGGGLVQAGGSLRLSCAASGFTFPGYTMGWSRQAPGKERELVAAISTSGGSTYYADSVKGRFTISRDNAKNTVYLQMNSLKPEDTAVYYCAAAKPRVISQNIIYDYWGQGTQVTVSS”, the “polyreactivity (PSR sort gate)” value was “high polyreactivity”.
With “QVQLVESGGGLVQAGGSLRLSCAASGIIFVKNAMGWYRPAPGKERELVAAISDNADSTYYADSVKGRFTISRDNAKNTVYLQMNSLKPEDTAVYYCAADWVHRTWLFWYTKYDYWGQGTQVTVSS”, the “polyreactivity (PSR sort gate)” value is on record as “low polyreactivity”.
For “QVQLVESGGGLVQAGGSLRLSCAASGRTFYRYGMGWYRQAPGKEREFVAAITRSGDSTYADSVKGRFTISRDNAKITVYLQMNSLKPEDTAVYYCAKVFLRQYAYRYYYWGQGTQVTVSS” the value was “high polyreactivity”; for “QVHLVESGGGLVQAGGSLRLSCAASGRTFIENAMGWYRQAPGKERELVAAIFSGGSTYYADSVKGRFTISRDNAKKTVDLQLNSLKPEDTAVYYCDARFARYDWSMYYWGQGTQVTVSS”, “low polyreactivity”.
As for “QVQLVESGGGLVQAGGSLLLSCAASGRIFSYNAMGWYRQAPGKERELVAVISRSDTSTYYADSVKGRFTISRDNAKNTVYLQMNSLKPEDTAVYYCNADGPSYFRYSGYYYWGQGTQVTVSS”, the “polyreactivity (PSR sort gate)” value is reported as “low polyreactivity”.
As for “QVQLVESGGGLVQAGGSVRLSCAASGSTFYHYALGWYRQAPGKERELVAAISWYGGSTYYADSVKGRFTISRDNAKNTVYLQMNSLKPEDTAVYYCAARGRARQRTSFEYWGQGTQVTVSS”, the “polyreactivity (PSR sort gate)” value is “high polyreactivity”.
As for “QVQLVESGGGLVQARGSLRLICAASGRTINGYVMGWYRPAPGKEREFVAVINWSGGNTYYADSVKGRFTISRDNAKNTLYLQMNSLKPEDTAVYDCAARRVRSYAYDYWGQGTEVTVSS”, the “polyreactivity (PSR sort gate)” value is on record as “high polyreactivity”.
“QVQLVESGGGLVQAGGSLRLSCAASGSIFFANAMGWYRQAPGKERELVAAITGSGDITYYADSVKGRFTISRDNAKNTVYLQMNSLKPEDTAVYYCAKRYIYVTHLRHPRYYYWGQGTQVTVSS”: the “polyreactivity (PSR sort gate)” value is listed as “low polyreactivity”.
On to “QVQLVESGGGLVQAGGSLRLSCAASGAIFELNAMGWYRQAPGKERELVAAIRWRTGRTYYADSVKGRFTISRDNAKNTVYLQMNSLKPEDTAVYYCAAPVRSGVRYTLDYWGQGTQVTVSS”, for which the “polyreactivity (PSR sort gate)” value is given as “high polyreactivity”.
As for “QVQLVESRGGLVQAGGSLRLSCAASGRILYVNDMGWYRQAPRKERELVAAISWRGGRTYYADSVKGRFTISRDNAKNTVYLQMNSLKPEDTAVYYCAARARGGYQRDYYWGQGTQVTVSS”, the “polyreactivity (PSR sort gate)” value is reported as “high polyreactivity”.
For the sequence “QVQLVESGGGLVQAGGSLRISCAPSGSIFESNAMGWYRQAPGKERELVADITYRGTRTYYADSVKGRFTISRDNAKNTVYLQMNSLKPEDTAVYYCAVWQDHYDWGQGTQVTVSS”, the “polyreactivity (PSR sort gate)” value is “low polyreactivity”.
Turning to “QVQLVESGGGLVQAGGSLRLSCAASGIIFGSNAMGWYRQAPGKERELVAAISYSGASTYYADSVKGRFTISRDNAKNTVYLQMNSLKPEDTAVYYCATYSRWDYGYWGQGTQVTVSS”, the “polyreactivity (PSR sort gate)” value is reported as “high polyreactivity”.
Regarding “QVQHVESGGGLVQAGGSLRLSCAASGITFSYYAMGWYIQAPGKEREFVAAISWSGGSTYYADSVKGRFTISRDNAKNTVYLQMNSLKPEVTAVYYCAADRYPYGLDYWGQGTQVTVSS”, the “polyreactivity (PSR sort gate)” value was “high polyreactivity”.
“LVHLQESGGGMVQAGGSLRLSGAAIGYISWADYMGWYRQAPGKERELVAGIGYGSTTYYADSVKGRFTISRDNAKNTAYLQMNSLKPEDTGVYYCAVGLDRDTAYKYWGQGTQVTVSS”: the “polyreactivity (PSR sort gate)” value is “low polyreactivity”.
For the sequence “QVQLLESGVGLVQAGGTLRLSCAASGRTFYRNAMGWYRQATGKEREMVAAISQSGGSTYYADSVKGRFTISRDNAKNTVYLQMNSLKPEDTAVYYCAAGNSRRVGMDYWGQGTQVTVSS”, the “polyreactivity (PSR sort gate)” value is reported as “high polyreactivity”.
As for “QVQLVESGGGLVQAGGSLRLSCAASGNTFFLNAMGWYRQAPGKERELVAAITSSGGSTYYADSVKGRFTISRDNAKNTVYLQMNSLKPEDTAVYYCATDRSYPPRSLNRRGPYEYWGQGTQVTVSS”, the “polyreactivity (PSR sort gate)” value is on record as “low polyreactivity”.
Take “QVQLVESGGGLVQAGGSLRLSCAASGSIFWPNAMGWYRQAPGKERELVAAISRGGSTNYADSVKGRFTISRDNAKNTVYLQMNSLKPEDTAVYYCATDAYYYNLLYLFPRYDYWGQGTQVTVSS”: the “polyreactivity (PSR sort gate)” value is “low polyreactivity”.
Turning to “QVQLVESGGGLVQAGGSLRLSCAASGRTFYNYAMGWYRQAPGKERELVAAISWSDGTTYYADSVKGRFTISRDNAKNTVYLQMNSLKPEDTAVYYCAAEFESSFALGFYYWGQGTQVTVSS”, the “polyreactivity (PSR sort gate)” value was “high polyreactivity”.
For “QVQLVESGGGLVQAGGSLRLSCASSGSIFPAYAMGWYRQAPGKERELVAAISSRGGSTYYADSVKGRFTISRDNAKNTVYLQMNSLKPEDTAVYYCAASRWLYYYLFEYWGQGTQVTVSS” the value was “high polyreactivity”.
Regarding “QVQLVESGGGLVQAGGSLRLISAASVRTFAPYPRGWYREAPGKDRELVAAISSGGGNTYYADSVKGRFTISRDHPKNTVYLLMNSLKPEDTAGYYCNAAQRRGGLGYWGQGTQVTVSS”, the “polyreactivity (PSR sort gate)” value is listed as “high polyreactivity”.
With “QVQLVDSGGGLVQAGGSLRLSCAASGGTFTAYTMGWYRQAPGKERELVAAITGDTSTNYADSVKGRFTISRDNAKNTVYLQMNSLKPVDTAVYYCAADVPRSYWRGYDYWGQGTQVTVSS”, the “polyreactivity (PSR sort gate)” value is on record as “low polyreactivity”.
As to “QVQLVESGGGLVQAGGSLRLSCAASGFTFPYYAMGWYRQAPGKERELVATIRSGGSTYYADSVKGRFTISRDNAKNTVYLQMNSLKPEDTAVYYCAKYQVLYSYDKYGYWGQGTQVTVSS”, the “polyreactivity (PSR sort gate)” value was “low polyreactivity”.
With “QVQLVESGGGLVQAGGSLRLSCAASGRTFRTYTMGWYRQAPGKERELVAAISRGGSTNYADSVKGRFTISRDNAKNTVYLQMNSLKPEYTAVYYCNAKASFWSPYDDWGQGTQVTVSS”, the “polyreactivity (PSR sort gate)” value is on record as “high polyreactivity”.
As for “QDQLVESGGGLVQAGGNLRLSCAASGSIFSDYTIGWYRQAPGKERELVADITLSSGSTYYADSVKGRFTISRDNAKNTVYLQMNSLKPEDTAVYYCAADGWYYFRSGDFEYDYWGHGTQVTVSS”, the “polyreactivity (PSR sort gate)” value is listed as “low polyreactivity”.
“QVQLVESGGGLVQAGGSLRLSCAASGSTFDFNAMGWYRQAPWKEMELVADITRDGSTNYADSVKGRFTISRDNAKNTVYLQMNSLNPEDTAVYYCNAANRPGISGITTQGYYWGQGTQVTVSA”: the “polyreactivity (PSR sort gate)” value is on record as “low polyreactivity”.
